The source of these data is patent US20190010233A1 (JIANGSU HYAMAB PHARMACEUTICAL, published 2019).

Experiment [1] has as its target T1, full length cyno PD-L1 on cells (cyno, UniProt G7PSE7 19-290).
T1 construct: also called CHO-K1-cPD-L1
As to the kind of experiment: FACS CHO-K1-cPD-L1, 3.70 nM mAb. As for the experimental part:
(§1) Other CHO-K1 were stably transfected with a pIRES plasmid containing the nucleic acid sequence encoding full length cyno PD-L1 to generate CHO-K1 cells stably expressing cyno PD-L1 (herein referred to as CHO-K1-cPD-L1 cells). […] The culture media was aspirated, and the cells were washed twice with HBSS (Hanks Balanced Salt Solution, Invitrogen). The cells were treated with enzyme-free cell dissociation solution (Versene solution, Invitrogen) and collected. The cells were then washed twice with HBSS, cell counts were determined, and cells were resuspended with HBSS at 2×10⁶ cells/mL. Goat serum was added to the cell suspension to a final concentration of 1%, and the cells were blocked for 30 minutes on ice and then washed twice with HBSS. The cells were collected after centrifugation and resuspended in FACS buffer (HBSS+1% BSA, v/v) at 2×10⁶ cells/mL. 100 μL of the cell suspension were then added to each well of 96-well plate. 100 μL of purified anti-PD-L1 antibodies from Example 2 were added to each well of the 96-well plate and incubated for 2 hours on ice. […] The samples were washed three times with FACS buffer, and 100 μL fixation buffer (4% paraformaldehyde v/v) were added to each well and incubated for 10 minutes. The cells were then washed twice with FACS buffer and resuspended in 100 μL FACS buffer. The mean fluorescence intensity (MFI) was determined using FACS Calibur (BD), and the results are shown in FIGS. 7-8 and in Tables 10-11.

For experiment [2], the target named is T2, full length human PD-L1 on cells (human, UniProt Q9NZQ7 19-290).
T2 construct: Also used as the target of the cell-based functional assays (transfected stimulator cells; PD-L1 of the cells in the mixed lymphocyte reaction); also called CHO-K1-hPD-L1; CHOK1-hPD-L1
Kind of experiment: FACS CHO-K1-hPD-L1, 11.11 nM mAb.

In experiment [3] the target is T2, full length human PD-L1 on cells. Kind of experiment: FACS CHO-K1-hPD-L1, 3.70 nM mAb. As for the experimental part: as §1
Experiment [4] has the same target. As to the kind of experiment: FACS CHO-K1-hPD-L1, 33.33 nM mAb.
Another experiment has as its target T3, hPD-L2 (human, UniProt Q9BQ51 20-219, limits assumed).
T3 construct: Bought protein
T3 sequence (looked up): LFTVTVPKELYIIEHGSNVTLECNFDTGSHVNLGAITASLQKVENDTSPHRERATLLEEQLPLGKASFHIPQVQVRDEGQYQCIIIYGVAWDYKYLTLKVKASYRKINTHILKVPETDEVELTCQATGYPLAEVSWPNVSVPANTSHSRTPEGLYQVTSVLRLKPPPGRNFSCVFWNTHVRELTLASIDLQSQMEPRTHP
As to the kind of experiment: ELISA (numbers in Table 9). The protocol: (§2) 100 μL of the diluted recombinant proteins were added to each well of 96-well plate. The plates were sealed with plastic film and incubated at 4° C. overnight. The plates were washed twice with wash buffer (PBS+0.01% (v/v) Tween20), and incubated with blocking buffer (PBS+0.01% (v/v) Tween20+1% (w/w) BSA) at room temperature for 2 hours. The blocking buffer was aspirated away, and 100 μL of purified anti-PD-L1 antibodies were added to each well and incubated for 2 hours at 37° C. The plates were washed three times with wash buffer (PBS+0.01% (v/v) Tween20). HRP-conjugated secondary antibody (Sigma) was added to each well and incubated for 2 hours at 37° C. After the plates were washed three times with wash buffer, 100 μL TMB substrate were added to each well, and the plates were incubated for 30 minutes at room temperature. 100 μL stop solution (0.1N HCl) was added to each well to stop the reaction.
Background: An ELISA detects its analyte on a solid surface through an enzyme-linked reagent.

Experiment [5] concerns the target T2, full length human PD-L1 on cells. Kind of experiment: FACS CHO-K1-hPD-L1, 1 nM mAb.
The target of experiment [6] is T4, human PD-L1^ECD-hFc protein (human, UniProt Q9NZQ7 19-239, biotinylated in the PD-1 binding ELISA (Table 3) and in the Octet assay (Table 12)).
T4 construct: The plain and the biotinylated protein are kept as one molecule; also called PD-L1-hFc; Immunogen A; not shown: human IgG Fc fragment (hFc)
As to the kind of experiment: ELISA, 0.001 nM mAb. The protocol: as §2

In experiment [7] the target is T1, full length cyno PD-L1 on cells. Kind of experiment: FACS CHO-K1-cPD-L1, 0.1 nM mAb. As for the experimental part: as §1
Experiment [8] has the same target. As to the kind of experiment: FACS CHO-K1-cPD-L1, 0.01 nM mAb. The protocol: as §1
Experiment [9] addresses T4, human PD-L1^ECD-hFc protein. As to the kind of experiment: ELISA, 0.0001 nM mAb. The protocol:
as §2

The target of experiment [10] is T2, full length human PD-L1 on cells. Kind of experiment: FACS CHO-K1-hPD-L1, 10 nM mAb. The protocol: as §1
Experiment [11] has as its target T4, human PD-L1^ECD-hFc protein. As to the kind of experiment: ELISA receptor-ligand blocking assay: PD-L1^ECD-hFc coated on the plate, antibody titrated, blocked ligand biotinylated B7.1^ECD, HRP-streptavidin, inhibition rate (%). As for the experimental part:
Purified PD-L1^ECD-hFc (Example 2) was diluted with PBS to a final concentration of 1.0 μg/mL, and 100 μL diluted PD-L1^ECD-hFc were added to each well of a 96-well plate that was then sealed with plastic film and incubated at 4° C. overnight. The plate was washed twice with wash buffer (PBS+0.01% (v/v) Tween 20) and incubated with blocking buffer (PBS+[…]) at room temperature for 2 hours. The blocking buffer was aspirated, and 50 μL purified anti-PD-L1 antibodies from Example 2 were added to each well of 96-well plate. […] The plate was washed three times with wash buffer (PBS+0.01% (v/v) Tween 20). 100 μL HRP-conjugated streptavidin (Sigma) were then added to each well and incubated at 37° C. for 2 hours. The plate was then washed three times with wash buffer, and 100 μL TMB substrate were added to each well. After 30 minutes of incubation at room temperature, the reaction was stopped by adding 100 μL stop solution (0.1N HCl).

T4 sequence (Q9NZQ7 19-239): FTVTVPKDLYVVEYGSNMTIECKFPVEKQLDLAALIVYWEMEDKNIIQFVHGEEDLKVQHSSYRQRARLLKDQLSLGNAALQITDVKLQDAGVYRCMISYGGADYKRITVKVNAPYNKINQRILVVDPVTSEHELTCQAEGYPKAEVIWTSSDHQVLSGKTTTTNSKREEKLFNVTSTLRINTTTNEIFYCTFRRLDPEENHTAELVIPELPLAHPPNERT
T1 sequence (G7PSE7 entry or part of it limits assumed): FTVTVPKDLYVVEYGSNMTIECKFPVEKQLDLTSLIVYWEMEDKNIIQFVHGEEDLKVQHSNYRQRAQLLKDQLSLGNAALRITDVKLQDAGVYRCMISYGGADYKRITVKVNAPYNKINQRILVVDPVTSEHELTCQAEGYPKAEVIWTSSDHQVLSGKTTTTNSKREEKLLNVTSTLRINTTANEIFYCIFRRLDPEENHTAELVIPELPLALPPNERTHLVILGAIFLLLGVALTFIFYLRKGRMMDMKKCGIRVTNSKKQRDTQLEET
T2 sequence (Q9NZQ7 19-290 limits assumed): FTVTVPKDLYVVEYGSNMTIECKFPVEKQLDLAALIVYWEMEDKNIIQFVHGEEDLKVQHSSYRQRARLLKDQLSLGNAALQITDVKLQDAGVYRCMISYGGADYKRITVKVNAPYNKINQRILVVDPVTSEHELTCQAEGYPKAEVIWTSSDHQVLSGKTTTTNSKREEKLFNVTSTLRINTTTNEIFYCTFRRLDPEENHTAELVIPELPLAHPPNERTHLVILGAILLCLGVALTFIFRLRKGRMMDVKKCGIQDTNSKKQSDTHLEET

B1: chimeric anti-PD-L1 antibody 73D3G2 (antibody, V domains shown)
VH: EVQLVESGGGLVQPGGSLRLSCAASGFTFNTYWMNWVRQAPGRGLEWVANIKQDGGEKYYVDSVKGRFTISRDNAKNSLYLQMNSLRAEDTAMYYCARDGRSWYPDAFDIWGQGTVVTVSS
VL: DIQMTQSPSTLSASVGDRVTITCRASQSISTWLAWYQQKLGKAPKLLIYEVSILESGVPSRFSGSGSGTEFTLTISSLQPDDFATYYCQQYHSFSSFGGGTRVEIK
notes: Purified from hybridoma of Harbour H2L2 mice: human variable regions, rat constant regions
Regarding B1, the Mean fluorescence intensity was 126 in [1], 114 in experiment [2], 113 in experiment [3] and 116 in experiment [4]. Also, in the experiment with hPD-L2, the binding result is given as “no binding”.

B2: chimeric anti-PD-L1 antibody 192D9E7 (antibody, V domains shown)
VH: EVQLVESGGGLVQPGGSLRLSCAASGFTFSSYWMSWVRQAPGKGLEWVADIKQDGSEKYYVDSVKGRFTISRDNAKNSLYLQMNSLRAEDTAVYYCTRDKPHWGGVMDAWGQGTSVTVSS
VL: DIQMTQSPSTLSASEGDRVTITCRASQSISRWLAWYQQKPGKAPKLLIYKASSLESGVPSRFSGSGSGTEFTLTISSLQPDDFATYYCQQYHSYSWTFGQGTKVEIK
notes: as for B1
Turning to B2, the Mean fluorescence intensity was 97.6 in experiment [5], 17 in experiment [7], 3.38 in [8] and 134 in experiment [10]. Further, the values for the OD450 nm in [6] and in [9] were 0.25 and 0.21, respectively.

B3: chimeric anti-PD-L1 antibody 105C5D7 (antibody, V domains shown)
VH: EVQLVESGGGLVQPGGSLRLSCAASGFTFSSYWMSWVRQAPGKGLEWVANIKQDGNEKYYVDSVKGRFTISRDNAKNSLYLQMNSLRAEDTAVYYCARNIKWGDAFDIWGQGTMVTVSS
VL: DIQMTQSPSSLSASVGDRVTITCRASQSISSYLNWYQQKPGKAPKLLIYAASSLQSGVPSRFSGSGSGTDFTLTISSLQPEDFAIYSCQQSYSIPLTFGGGTKVEIK
notes: as for B1
Regarding B3, the Mean fluorescence intensity in experiment [1] worked out at 142; in experiment [2] it was 201; in experiment [3], 203; in [4], 194. Moreover, in the experiment with hPD-L2, the binding result is reported as “no binding”.

B4: chimeric anti-PD-L1 antibody 127D2F3 (antibody, V domains shown)
VH: EVQLVESGGGLVQPGGSLRLSCVASGFTFSSYWMSWVRQAPGKGLEWVANIKQDGSEKYYVDSVKGRLTISRDNAKNSLYLQMKSLRAEDTAVYYCARDPIYSSYFDYWGQGILVTVSS
VL: DIQMTQSPSSLSASVGDRVTITCRASQSISNYLNWYQQKPGKAPKLLIYAASSLQSGVPSRFSGSGSGTDFTLTISSLQPEDFAAYYCQQSYGIPFTFGPGTKVDIK
notes: as for B1
For B4, the Mean fluorescence intensity in experiment [5] stood at 88.5; in experiment [7] it was 14.3; in experiment [8] it was 3.08; in [10] it was 235. Further, the OD450 nm in experiment [6] is 0.24; in [9], 0.2. Moreover, the “IC50 (read off the curve)” value in experiment [11] was about 0.4 nM.

B5: chimeric anti-PD-L1 antibody 78A11F6 (antibody, V domains shown)
VH: EVQLVESGGGLVQPGGSLRLSCAASGITFSSYWMSWVRQTPGKGLEWVANIKQDGSEKYYVKSVKGRFTISRDNAKNSLYLQMNSLRAEDTAVYYCVRDRAVPGTGAFDIWGQGTMVIVSS
VL: DIQMTQSPSTLSASVGDRVTITCRASQSISNWLAWYQQKPGKAPKLLIYKASSLESGVPSRFSGSGSGTEFTLTISSLQPDDFATYYCQQYDSSLFTFGQGTKLEIK
notes: as for B1
Take B5: the Mean fluorescence intensity in experiment [1] is 139; in experiment [2] it was 210; in [3], 199; in [4], 225. In the experiment with hPD-L2, the binding result is reported as “no binding”.

B6: chimeric anti-PD-L1 antibody 73G11B3 (antibody, V domains shown)
VH: EVQLVESGGGLVQPGGSLRLSCVVSGFTFSSYWMSWVRQTPGKGLEWVANIKQDGSEKYYVDSVKGRLTISRDNAKNSLYLQMNSLRAEDTAVYYCVRDRAVPGTGALDIWGQGTMVTVSS
VL: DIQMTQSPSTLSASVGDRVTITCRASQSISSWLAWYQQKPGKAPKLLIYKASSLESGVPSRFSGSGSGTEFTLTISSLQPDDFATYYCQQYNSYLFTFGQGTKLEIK
notes: as for B1
For B6, the Mean fluorescence intensity in experiment [5] is 107; in experiment [7], 19.8; in experiment [8], 3.83; in [10], 213. Moreover, the OD450 nm in [6] came out at 0.21; in experiment [9], 0.2. Also, the “IC50 (read off the curve)” value in experiment [11] was about 0.5 nM.
